Reference: patent publication US20180298361A1 (CHO PHARMA, published 2018)

B1: Commercial Rituximab (antibody, human IgG1, kappa)
heavy: not shown
light: QIVLSQSPAILSASPGEKVTMTCRASSSVSYIHWFQQKPGSSPKPWIYATNLASGVPVRFSGSGSGTSYSLTISRVEAEDAATYYCQQWTSNPPTFGGGTKLEIKRTVAAPSVFIFPPSDEQLKSGTASVVCLLNNFYPREAKVQWKVDNALQSGNSQESVTEQDSKDSTYSLSSTLTLSKADYEKHKVYACEVTHQGLSSPVTKSFNRGEC
modifications: heterogeneous Fc N-glycans at N297: core-fucosylated biantennary complex type oligosaccharides carrying 0-2 galactose (G0F, G1F, G2F)
notes: DrugBank DB00073; also called non-modified Rituximab; original Rituximab
B2: Rtx-G2 (antibody, human IgG1, kappa)
heavy: not shown
light: B1 light
modifications: homogeneous non-fucosylated N-glycan G2 (high mannose type, Man9GlcNAc2) at Asn-297
notes: also called glycoengineered Rituximab G2; Man9GlcNAc2 glycoform
B3: Rtx-G9 (antibody, human IgG1, kappa)
heavy: not shown
light: B1 light
modifications: homogeneous N-glycan G9 without core fucose (bi-antennary complex type with alpha 1,2 fucose on one of the two terminal galactose) at Asn-297
notes: also called glycoengineered Rituximab G9; bi-antennary complex type glycoform
B4: Rtx-G12 (antibody, human IgG1, kappa)
heavy: not shown
light: B1 light
modifications: homogeneous N-glycan G12 (bi-antennary complex type; structure only in FIG. 15) at Asn-297
notes: also called glycoengineered Rituximab G12; bi-antennary complex type glycoform
B5: Rtx-G13 (antibody, human IgG1, kappa)
heavy: not shown
light: B1 light
modifications: homogeneous N-glycan G13 (bi-antennary complex type; structure only in FIG. 15) at Asn-297
notes: also called glycoengineered Rituximab G13; bi-antennary complex type glycoform
B6: Rtx-G4 (antibody, human IgG1, kappa)
heavy: not shown
light: B1 light
modifications: homogeneous non-fucosylated N-glycan G4 (hybrid type; structure in FIG. 15) at Asn-297
notes: also called glycoengineered Rituximab G4; hybrid type glycoform
B7: Rtx-G8 (antibody, human IgG1, kappa)
heavy: not shown
light: B1 light
modifications: homogeneous non-fucosylated N-glycan G8 (bi-antennary complex type with bisected GlcNAc and terminal di-galactose) at Asn-297
notes: also called glycoengineered Rituximab G8; bi-antennary complex type glycoform
B8: Rtx-G14 (antibody, human IgG1, kappa)
heavy: not shown
light: B1 light
modifications: homogeneous N-glycan G14 (bi-antennary complex type; structure only in FIG. 15) at Asn-297
notes: also called glycoengineered Rituximab G14; bi-antennary complex type glycoform
B9: Rtx-G10 (antibody, human IgG1, kappa)
heavy: not shown
light: B1 light
modifications: homogeneous N-glycan G10 without core fucose (bi-antennary complex type with alpha 1,3 fucose on both GlcNAc and terminal di-galactose) at Asn-297
notes: also called glycoengineered Rituximab G10; bi-antennary complex type glycoform
B10: Rtx-G3 (antibody, human IgG1, kappa)
heavy: not shown
light: B1 light
modifications: homogeneous non-fucosylated N-glycan G3 (hybrid type; structure in FIG. 15) at Asn-297
notes: also called glycoengineered Rituximab G3; hybrid type glycoform
B11: Rtx-G7 (antibody, human IgG1, kappa)
heavy: not shown
light: B1 light
modifications: homogeneous non-fucosylated N-glycan G7 (bi-antennary complex type with terminal di-galactose) at Asn-297
notes: also called glycoengineered Rituximab G7; bi-antennary complex type glycoform
B12: Rtx-G6 (antibody, human IgG1, kappa)
heavy: not shown
light: B1 light
modifications: homogeneous non-fucosylated N-glycan G6 (tri-antennary complex type with terminal alpha-2,6 sialic acids) at Asn-297
notes: also called glycoengineered Rituximab G6; tri-antennary complex type glycoform
B13: Rtx-G1 (antibody, human IgG1, kappa)
heavy: not shown
light: B1 light
modifications: homogeneous non-fucosylated N-glycan G1 (high mannose type, Man5GlcNAc2) at Asn-297
notes: also called glycoengineered Rituximab G1; Man5GlcNAc2 glycoform
B14: Rtx-G15 (antibody, human IgG1, kappa)
heavy: not shown
light: B1 light
modifications: homogeneous N-glycan G15 (bi-antennary complex type; structure only in FIG. 15) at Asn-297
notes: also called glycoengineered Rituximab G15; bi-antennary complex type glycoform
B15: Rtx-G16 (antibody, human IgG1, kappa)
heavy: not shown
light: B1 light
modifications: homogeneous non-fucosylated N-glycan G16 (bi-antennary complex type with terminal alpha-2,6 sialic acids) at Asn-297
notes: also called glycoengineered Rituximab G16; bi-antennary complex type glycoform
B16: Rtx-G11 (antibody, human IgG1, kappa)
heavy: not shown
light: B1 light
modifications: homogeneous N-glycan G11 (bi-antennary complex type; structure only in FIG. 15) at Asn-297
notes: also called glycoengineered Rituximab G11; bi-antennary complex type glycoform
B17: Rtx-G5 (antibody, human IgG1, kappa)
heavy: not shown
light: B1 light
modifications: homogeneous non-fucosylated N-glycan G5 (tri-antennary complex type with terminal galactose residues) at Asn-297
notes: also called glycoengineered Rituximab G5; tri-antennary complex type glycoform

How the values were obtained:
[1] = biological target: T1, recombinant soluble FcγRIIIA (UniProt P08637 17-208, limits assumed); assay: ELISA; recombinant soluble FcγRIIIA coated on plate; the reference itself
T1 construct: also called FcγIIIA; FcTRIIIA
Description: (§1) Microtiter plate (Corning® 96 Well Clear Flat Bottom Polystyrene High Bind, #9018) was coated with 50 ng/well of recombinant soluble FcγRIIIA diluted in 50 mM Bicarbonate/carbonate coating buffer (pH 10) overnight at 4° C. The plate was then washed 3 times with PBST (0.05% Tween 20 in PBS) and blocked with 5% BSA in PBST for 1 h at room temperature. The binding activity of glycoengineered antibodies (Rtx G1-G16) was determined for serial eight dilutions, starting with concentration of 100 μg/m1 in 2% BSA/PBST in duplicates. The plate was incubated for 1 h at room temperature, and washed 3 times with PBST. Next, 100 μl of goat anti-human IgG conjugated to horseradish peroxidase (Jackson immune, #109-035-088) in 2% BSA/PBST was added per well and incubated for 30 min at room temperature. The plate was washed 5 times with PBST then 100 μL per well of TMB substrate (eBioscience, #00-4201-56) was added and the resulting plate was incubated in the dark 15 min at room temperature. The absorbance value was determined at 450 nm in an ELISA reader (Molecular Devices Corporation, Sunnyvale, Calif., USA).

[2] = biological target: T1, recombinant soluble FcγRIIIA; assay: ELISA; recombinant soluble FcγRIIIA coated on plate, antibody titrated, anti-human IgG-HRP detection
Description: as §1

[3] = biological target: T1, recombinant soluble FcγRIIIA; assay: ELISA; recombinant soluble FcγRIIIA coated on plate; against commercial Rituximab
Description: as §1

T1 sequence (P08637 17-208 limits assumed): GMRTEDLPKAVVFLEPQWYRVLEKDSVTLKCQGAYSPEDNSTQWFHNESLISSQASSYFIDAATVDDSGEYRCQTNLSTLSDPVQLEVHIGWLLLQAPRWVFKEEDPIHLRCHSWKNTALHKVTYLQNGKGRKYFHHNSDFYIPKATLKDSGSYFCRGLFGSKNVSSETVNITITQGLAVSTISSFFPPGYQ

Binder	EC50 improvement Folds [1]	EC50 [2]	Maxi binding (A450 nm) [2]	EC50 improvement Folds [3]
B1	1 fold	1.04 µg/mL	1.2 A450 nm	–
B2	–	1.05 µg/mL	1.1 A450 nm	~1 fold
B3	–	0.061 µg/mL	2.4 A450 nm	17 fold
B4	–	0.033 µg/mL	2.6 A450 nm	33 fold
B5	–	0.048 µg/mL	2.6 A450 nm	22 fold
B6	–	0.394 µg/mL	1.2 A450 nm	2.7 fold
B7	–	0.034 µg/mL	2.3 A450 nm	32 fold
B8	–	0.033 µg/mL	2.4 A450 nm	33 fold
B9	–	0.043 µg/mL	2.2 A450 nm	26 fold
B10	–	0.32 µg/mL	1.3 A450 nm	3.2 fold
B11	–	0.031 µg/mL	2.5 A450 nm	35 fold
B12	–	0.032 µg/mL	2.8 A450 nm	34 fold
B13	–	0.16 µg/mL	1.4 A450 nm	6.5 fold
B14	–	0.034 µg/mL	2.3 A450 nm	32 fold
B15	–	0.032 µg/mL	2.5 A450 nm	34 fold
B16	–	0.199 µg/mL	2.4 A450 nm	5.4 fold
B17	–	0.031 µg/mL	2.6 A450 nm	35 fold
